Measurements reported in patent US20210230279A1.

What was measured:
[1] = biological target: recombinant human integrin αvβ6 (human) (UniProt P18564); assay: competition of 3G9 with RGD3 for binding to αvβ6 (sheet title); y axis 'Relative Inhibition of avb6 binding to TGFb3 peptide'; signal falls from about 1.03 to about 0.04 at log 4
[2] = biological target: recombinant human integrin αvβ6 (human) (UniProt P18564); assay: blocking of adhesion (A590) of Cho cells expressing GARP/LTGFB1 to immobilized αvβ6; antibody concentration varied; unit taken from the axis log[Agonist], (ug/ml)
[3] = biological target: recombinant human integrin αvβ6 (human) (UniProt P18564)

recombinant human integrin αvβ6 (human), sequence (chain, as listed by the source limits assumed, chain 1 of 2): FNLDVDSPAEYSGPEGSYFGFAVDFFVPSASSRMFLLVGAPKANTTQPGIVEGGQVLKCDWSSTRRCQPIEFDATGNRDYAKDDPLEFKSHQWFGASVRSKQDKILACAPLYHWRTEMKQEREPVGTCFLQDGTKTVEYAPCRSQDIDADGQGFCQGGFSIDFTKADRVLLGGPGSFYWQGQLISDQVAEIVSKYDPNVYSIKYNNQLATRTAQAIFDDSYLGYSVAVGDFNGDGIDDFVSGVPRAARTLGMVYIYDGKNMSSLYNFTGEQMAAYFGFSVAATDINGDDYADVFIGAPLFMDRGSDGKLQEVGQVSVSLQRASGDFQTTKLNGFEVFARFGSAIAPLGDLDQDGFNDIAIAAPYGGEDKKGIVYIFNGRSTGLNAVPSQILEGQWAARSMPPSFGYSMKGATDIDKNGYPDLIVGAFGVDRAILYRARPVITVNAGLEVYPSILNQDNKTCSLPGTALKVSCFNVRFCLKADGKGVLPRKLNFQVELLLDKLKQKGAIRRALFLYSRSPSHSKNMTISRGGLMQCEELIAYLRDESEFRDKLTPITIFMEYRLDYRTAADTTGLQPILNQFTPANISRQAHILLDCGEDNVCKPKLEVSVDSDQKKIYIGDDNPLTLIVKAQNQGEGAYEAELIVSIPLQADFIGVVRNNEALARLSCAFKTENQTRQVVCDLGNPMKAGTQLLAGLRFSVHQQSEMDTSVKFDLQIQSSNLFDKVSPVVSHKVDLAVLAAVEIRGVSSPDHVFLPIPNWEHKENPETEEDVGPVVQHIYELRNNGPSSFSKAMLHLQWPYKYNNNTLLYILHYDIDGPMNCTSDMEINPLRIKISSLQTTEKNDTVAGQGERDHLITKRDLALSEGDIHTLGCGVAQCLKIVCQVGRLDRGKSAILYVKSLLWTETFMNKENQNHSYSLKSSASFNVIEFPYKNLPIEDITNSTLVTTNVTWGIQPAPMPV
recombinant human integrin αvβ6 (human), sequence (P18564 22-707 limits assumed, chain 2 of 2): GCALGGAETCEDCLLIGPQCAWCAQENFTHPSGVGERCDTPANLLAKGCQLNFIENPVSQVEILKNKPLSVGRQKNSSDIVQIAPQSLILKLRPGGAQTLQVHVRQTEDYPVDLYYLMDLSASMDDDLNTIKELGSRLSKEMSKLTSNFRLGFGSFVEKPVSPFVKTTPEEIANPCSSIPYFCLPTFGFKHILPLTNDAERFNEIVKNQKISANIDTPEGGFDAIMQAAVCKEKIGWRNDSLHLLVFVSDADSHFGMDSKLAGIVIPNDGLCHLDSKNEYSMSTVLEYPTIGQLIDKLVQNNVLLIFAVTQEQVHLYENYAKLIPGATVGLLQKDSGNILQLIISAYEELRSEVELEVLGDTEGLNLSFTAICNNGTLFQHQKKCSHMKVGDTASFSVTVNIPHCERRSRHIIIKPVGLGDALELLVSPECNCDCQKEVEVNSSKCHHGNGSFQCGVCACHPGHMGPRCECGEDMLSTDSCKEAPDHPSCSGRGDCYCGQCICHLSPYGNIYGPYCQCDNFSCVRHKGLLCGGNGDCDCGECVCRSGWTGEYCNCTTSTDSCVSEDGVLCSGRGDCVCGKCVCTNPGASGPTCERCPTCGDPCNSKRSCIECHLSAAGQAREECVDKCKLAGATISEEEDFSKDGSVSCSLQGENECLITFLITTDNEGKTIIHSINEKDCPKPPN

Work on Mab 3G9 (anti-β6) (antibody) yielded a LogEC50 (Log10 (ng/ml)) [1] of 2.93, an EC50 [2] of 0.834 µg/mL and an EC50 of inhibition of TGF-β activation (TMLC luciferase reporter) of GARP/LTGFB1 Cho cells on immobilized αvβ6; unit from the axis [3] of 0.922 µg/mL.
